Data taken from PMC4315173 (The Biochemical journal, 2014).

B1: PDE4D3 (natural protein, UniProt P14270-1 1-672, looked up)
chain: MMHVNTFPFRRHSWICFDVDNGTSAGRSPLDPMTSPGSGLILQANFVHSQRRESFLYRSDSDYDLSPKSMSRNSSIASDIHGDDLIVTPFAQVLASLRTVRNNFAALTNLQDRAPSKRSPMCNQPSINKATITEEAYQKLASETLEELDWCLDQLETLQTRHSVSEMASNKFKRMLNRELTHLSEMSRSGNQVSEYISNTFLDKQHEVEIPSPTQKEKEKKKRPMSQISGVKKLMHSSSLTNSCIPRFGVKTEQEDVLAKELEDVNKWGLHVFRIAELSGNRPLTVIMHTIFQERDLLKTFKIPVDTLITYLMTLEDHYHADVAYHNNIHAADVVQSTHVLLSTPALEAVFTDLEILAAIFASAIHDVDHPGVSNQFLINTNSELALMYNDSSVLENHHLAVGFKLLQEENCDIFQNLTKKQRQSLRKMAIDIVLATDMSKHMNLLADLKTMVETKKVTSSGVLLLDNYSDRIQVLQNMVHCADLSNPTKPLQLYRQWTDRIMEEFFRQGDRERERGMEISPMCDKHNASVEKSQVGFIDYIVHPLWETWADLVHPDAQDILDTLEDNREWYQSTIPQSPSPAPDDQEDGRQGQTEKFQFELTLEEDGESDTEKDSGSQVEEDTSCSDSKTLCTQDSESTEIPLDEQVEEEAVAEEESQPQTGVADDCCPDT
B2: PDE4A4 (natural protein, human, UniProt P27815-1 1-886, looked up)
chain: MEPPTVPSERSLSLSLPGPREGQATLKPPPQHLWRQPRTPIRIQQRGYSDSAERAERERQPHRPIERADAMDTSDRPGLRTTRMSWPSSFHGTGTGSGGAGGGSSRRFEAENGPTPSPGRSPLDSQASPGLVLHAGAATSQRRESFLYRSDSDYDMSPKTMSRNSSVTSEAHAEDLIVTPFAQVLASLRSVRSNFSLLTNVPVPSNKRSPLGGPTPVCKATLSEETCQQLARETLEELDWCLEQLETMQTYRSVSEMASHKFKRMLNRELTHLSEMSRSGNQVSEYISTTFLDKQNEVEIPSPTMKEREKQQAPRPRPSQPPPPPVPHLQPMSQITGLKKLMHSNSLNNSNIPRFGVKTDQEELLAQELENLNKWGLNIFCVSDYAGGRSLTCIMYMIFQERDLLKKFRIPVDTMVTYMLTLEDHYHADVAYHNSLHAADVLQSTHVLLATPALDAVFTDLEILAALFAAAIHDVDHPGVSNQFLINTNSELALMYNDESVLENHHLAVGFKLLQEDNCDIFQNLSKRQRQSLRKMVIDMVLATDMSKHMTLLADLKTMVETKKVTSSGVLLLDNYSDRIQVLRNMVHCADLSNPTKPLELYRQWTDRIMAEFFQQGDRERERGMEISPMCDKHTASVEKSQVGFIDYIVHPLWETWADLVHPDAQEILDTLEDNRDWYYSAIRQSPSPPPEEESRGPGHPPLPDKFQFELTLEEEEEEEISMAQIPCTAQEALTAQGLSGVEEALDATIAWEASPAQESLEVMAQEASLEAELEAVYLTQQAQSTGSAPVAPDEFSSREEFVVAVSHSSPSALALQSPLLPAWRTLSVSEHAPGLPGLPSTAAEVEAQREHQAAKRACSACAGTFGEDTSALPAPGGGGSGGDPT
B3: PDE4D5 (natural protein, rat, UniProt P14270-8 1-745, looked up)
chain: MAQQTTSPDTLTVPEVDNPHVPNPWLNEDLVKSLRENLLQHEKSKTARKSVSPKLSPVISPRNSPRLLRRMLLSSNIPKQRRFTVAHTCFDVDNGTSAGRSPLDPMTSPGSGLILQANFVHSQRRESFLYRSDSDYDLSPKSMSRNSSIASDIHGDDLIVTPFAQVLASLRTVRNNFAALTNLQDRAPSKRSPMCNQPSINKATITEEAYQKLASETLEELDWCLDQLETLQTRHSVSEMASNKFKRMLNRELTHLSEMSRSGNQVSEYISNTFLDKQHEVEIPSPTQKEKEKKKRPMSQISGVKKLMHSSSLTNSCIPRFGVKTEQEDVLAKELEDVNKWGLHVFRIAELSGNRPLTVIMHTIFQERDLLKTFKIPVDTLITYLMTLEDHYHADVAYHNNIHAADVVQSTHVLLSTPALEAVFTDLEILAAIFASAIHDVDHPGVSNQFLINTNSELALMYNDSSVLENHHLAVGFKLLQEENCDIFQNLTKKQRQSLRKMAIDIVLATDMSKHMNLLADLKTMVETKKVTSSGVLLLDNYSDRIQVLQNMVHCADLSNPTKPLQLYRQWTDRIMEEFFRQGDRERERGMEISPMCDKHNASVEKSQVGFIDYIVHPLWETWADLVHPDAQDILDTLEDNREWYQSTIPQSPSPAPDDQEDGRQGQTEKFQFELTLEEDGESDTEKDSGSQVEEDTSCSDSKTLCTQDSESTEIPLDEQVEEEAVAEEESQPQTGVADDCCPDT
B4: PDE4D4 (natural protein, rat, UniProt P14270-5 1-803, looked up)
chain: MEAEGSSVPARAGSHEGSDSSGGAALKAPKHLWRHEQHHQYPLRQPQFRLLHPHHHLPPPPPPSPQPQLQPPPPPPLPPPPPPPGATRGRYASSGASRVRHRGYSDTERYLYCRAMDRTSYAVETGHRPGLKKSRMSWPSSFQGLRRFDVDNGTSAGRSPLDPMTSPGSGLILQANFVHSQRRESFLYRSDSDYDLSPKSMSRNSSIASDIHGDDLIVTPFAQVLASLRTVRNNFAALTNLQDRAPSKRSPMCNQPSINKATITEEAYQKLASETLEELDWCLDQLETLQTRHSVSEMASNKFKRMLNRELTHLSEMSRSGNQVSEYISNTFLDKQHEVEIPSPTQKEKEKKKRPMSQISGVKKLMHSSSLTNSCIPRFGVKTEQEDVLAKELEDVNKWGLHVFRIAELSGNRPLTVIMHTIFQERDLLKTFKIPVDTLITYLMTLEDHYHADVAYHNNIHAADVVQSTHVLLSTPALEAVFTDLEILAAIFASAIHDVDHPGVSNQFLINTNSELALMYNDSSVLENHHLAVGFKLLQEENCDIFQNLTKKQRQSLRKMAIDIVLATDMSKHMNLLADLKTMVETKKVTSSGVLLLDNYSDRIQVLQNMVHCADLSNPTKPLQLYRQWTDRIMEEFFRQGDRERERGMEISPMCDKHNASVEKSQVGFIDYIVHPLWETWADLVHPDAQDILDTLEDNREWYQSTIPQSPSPAPDDQEDGRQGQTEKFQFELTLEEDGESDTEKDSGSQVEEDTSCSDSKTLCTQDSESTEIPLDEQVEEEAVAEEESQPQTGVADDCCPDT

Key:
[1] = target: endogenous PDE4D (mouse brain) (mouse (endogenous in brain)) (UniProt Q01063); experiment: co-IP
Chain of endogenous PDE4D (mouse brain) (mouse (endogenous in brain)) (Q01063 whole entry): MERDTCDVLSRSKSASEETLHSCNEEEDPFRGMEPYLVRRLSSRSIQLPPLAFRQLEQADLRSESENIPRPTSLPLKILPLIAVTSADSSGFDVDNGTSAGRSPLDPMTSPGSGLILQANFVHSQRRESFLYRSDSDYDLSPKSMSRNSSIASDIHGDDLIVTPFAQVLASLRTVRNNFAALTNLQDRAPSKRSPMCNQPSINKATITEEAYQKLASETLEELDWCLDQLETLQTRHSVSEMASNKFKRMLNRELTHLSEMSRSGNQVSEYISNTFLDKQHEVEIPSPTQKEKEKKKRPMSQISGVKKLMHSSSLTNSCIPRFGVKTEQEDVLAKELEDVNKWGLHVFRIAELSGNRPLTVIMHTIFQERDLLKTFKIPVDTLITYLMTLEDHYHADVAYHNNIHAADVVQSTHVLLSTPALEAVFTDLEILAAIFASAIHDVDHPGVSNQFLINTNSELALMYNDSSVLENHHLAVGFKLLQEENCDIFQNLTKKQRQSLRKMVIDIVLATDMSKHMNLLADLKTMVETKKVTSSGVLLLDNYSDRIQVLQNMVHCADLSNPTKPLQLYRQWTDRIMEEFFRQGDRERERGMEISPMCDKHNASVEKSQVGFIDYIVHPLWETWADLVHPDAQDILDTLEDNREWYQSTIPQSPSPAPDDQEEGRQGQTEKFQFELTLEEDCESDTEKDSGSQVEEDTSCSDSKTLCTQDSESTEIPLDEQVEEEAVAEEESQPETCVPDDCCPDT

[2] = target: the molecule itself; experiment: SEC + other: sucrose density gradient centrifugation

Row | Molecule | percent of the total PDE4A found in complex with PDE4D [1] [%] | stoichiometry N [2]
1 | endogenous long PDE4A variants (mouse brain) (from UniProt O89084 1-844) (natural protein) | 2 | –
2 | B1 | – | 2
3 | B2 | – | 2
4 | B3 | – | 2
5 | B4 | – | 2
